Laboratory results as given in US12099068B2, “Biomarkers for graft-versus-host disease” (Incyte Corporation, priority 2018, dated 2024).

B1: RETN (protein, UniProt Q9HD89 19-108, looked up)
Resistin: KTLCSMEEAINERIQEVAGSLIFRAISSIGLECQSVTSRGDLATCPRGFAVTGCTCGSACGSWDVRAETTCHCQCAGMDWTGARCCRVQP
B2: COMT (protein, UniProt P21964 1-271, looked up)
Catechol O-methyltransferase: MPEAPPLLLAAVLLGLVLLVVLLLLLRHWGWGLCLIGWNEFILQPIHNLLMGDTKEQRILNHVLQHAEPGNAQSVLEAIDTYCEQKEWAMNVGDKKGKIVDAVIQEHQPSVLLELGAYCGYSAVRMARLLSPGARLITIEINPDCAAITQRMVDFAGVKDKVTLVVGASQDIIPQLKKKYDVDTLDMVFLDHWKDRYLPDTLLLEECGLLRKGTVLLADNVICPGAPDFLAHVRGSSCFECTHYQSFLEYREVVDGLEKAIYKGPGSEAGP
B3: WASF1 (protein, UniProt Q92558 1-559, looked up)
Actin-binding protein WASF1: MPLVKRNIDPRHLCHTALPRGIKNELECVTNISLANIIRQLSSLSKYAEDIFGELFNEAHSFSFRVNSLQERVDRLSVSVTQLDPKEEELSLQDITMRKAFRSSTIQDQQLFDRKTLPIPLQETYDVCEQPPPLNILTPYRDDGKEGLKFYTNPSYFFDLWKEKMLQDTEDKRKEKRKQKQKNLDRPHEPEKVPRAPHDRRREWQKLAQGPELAEDDANLLHKHIEVANGPASHFETRPQTYVDHMDGSYSLSALPFSQMSELLTRAEERVLVRPHEPPPPPPMHGAGDAKPIPTCISSATGLIENRPQSPATGRTPVFVSPTPPPPPPPLPSALSTSSLRASMTSTPPPPVPPPPPPPATALQAPAVPPPPAPLQIAPGVLHPAPPPIAPPLVQPSPPVARAAPVCETVPVHPLPQGEVQGLPPPPPPPPLPPPGIRPSSPVTVTALAHPPSGLHPTPSTAPGPHVPLMPPSPPSQVIPASEPKRHPSTLPVISDARSVLLEAIRKGIQLRKVEEQREQEAKHERIENDVATILSRRIAVEYSDSEDDSEFDEVDWLE
B4: SH2D1A (protein, UniProt O60880 1-128, looked up)
SH2 domain-containing protein …: MDAVAVYHGKISRETGEKLLLATGLDGSYLLRDSESVPGVYCLCVLYHGYIYTYRVSQTETGSWSAETAPGVHKRYFRKIKNLISAFQKPDQGIVIPLQYPVEKKSSARSTQGTTGIREDPDVCLKAP
B5: WAS (protein, UniProt P42768 2-502, looked up)
Actin nucleation-promoting …: SGGPMGGRPGGRGAPAVQQNIPSTLLQDHENQRLFEMLGRKCLTLATAVVQLYLALPPGAEHWTKEHCGAVCFVKDNPQKSYFIRLYGLQAGRLLWEQELYSQLVYSTPTPFFHTFAGDDCQAGLNFADEDEAQAFRALVQEKIQKRNQRQSGDRRQLPPPPTPANEERRGGLPPLPLHPGGDQGGPPVGPLSLGLATVDIQNPDITSSRYRGLPAPGPSPADKKRSGKKKISKADIGAPSGFKHVSHVGWDPQNGFDVNNLDPDLRSLFSRAGISEAQLTDAETSKLIYDFIEDQGGLEAVRQEMRRQEPLPPPPPPSRGGNQLPRPPIVGGNKGRSGPLPPVPLGIAPPPPTPRGPPPPGRGGPPPPPPPATGRSGPLPPPPPGAGGPPMPPPPPPPPPPPSSGNGPAPPPLPPALVPAGGLAPGGGRGALLDQIRQGIQLNKTPGAPESSALQPPPQSSEGLVGALMHVMQKRSRAIHSSDEGEDQAGDEDEDDEWDD
B6: RNASE3 (protein, UniProt P12724 28-160, looked up)
Eosinophil cationic protein: RPPQFTRAQWFAIQHISLNPPRCTIAMRAINNYRWRCKNQNTFLRTTFANVVNVCGNQSIRCPHNRTLNNCHRSRFRVPLLHCDLINPGAQNISNCTYADRPGRRFYVVACDNRDPRDSPRYPVVPVHLDTTI

Tested on: plasma proteins
Assay: Plasma proteins modulated between baseline and day 28 in responders (CR, VGPR, PR; n = 19), Example 6 (Table 13)
Type: in vivo, human
Details: plasma protein (OLINK NPX); responders (CR, VGPR, PR; n = 19); itacitinib 200 mg or 300 mg QD with corticosteroids; day 28 vs baseline
Summary of the method: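 Plasma at baseline/screening and day 28 profiled for >1000 proteins by OLINK proximity extension assay, reported as NPX (log2). Steroid-naive and steroid-refractory patients pooled. Paired and unpaired t tests, ANOVA and Pearson correlation applied; significance at P<0.05.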

Row | Molecule | Fold Change, Decreased Expression from Baseline to Day 28
1 | B1 | −1.8687
2 | B2 | −1.4304
3 | B3 | −1.5354
4 | B4 | −1.1574
5 | B5 | −2.133
6 | B6 | −2.6612
